# Experimental data reported in the DeepSol protein solubility set.
# Experiment: soluble on expression in E. coli; label from the status in PepcDB or PDB records
row,Sequence,soluble on expression in E. coli
1,MHLYNLTLQGQSAINQAIQGNFSGTPKAQEIVVGRGSALELLTLDTVTGKIKVMCHQDIFGIVRSLLAFRLTAGTRDFIAVGSDSGRIVILQYNAEKTCFERLHQETFGKTGCRRIVPGHFLVGDPRGRALMIGAVERQKLVYIMNRDSEAHLTISSPLEAHKHHTLCYAMVGIDVGFENPTFACLEFDYEDADNDPTGEAAKRTQQTLTFYELDLGLNHVVRKYAEPLNDPGNLLIAVPGGNDGPSGVIVCCENYLVYKNLGDQPDIRCPIPRRRNELDDADRTMLIIATATHKTKNMYFFLVQAENGDIFKVTLETDEDLVSEMKLKYFDTVPPANALCILKSGFLFVAAEFGNHELYQIASLGEGDDDEFSSAMGFGENDAAFFEPHELKSLIPIDSMDSLSPLTDAVIGDIAREDAAQIYSLVGRGARSSLKVLRNGLEISEMAVSDLPGNPNAVWTVKKNIEDQYDSYIVVSFVNATLALTIGDTVEEASDSGFLPTTPTIGCAMIGDDSLVQIYSEGIRHIRADKRINEWKAPPRRQIVKCAVNRRQVAVALTGGELVYFELDLNGTLNEFTERKLFNADIACMTFSEISEGELNSRFLALGTVDNAVRIISLDPNDMLMPLSTQSLPCPPESILLIDTPNEDGKGVAAVHLNIGLQNGCLFRNTVDNVTGAIMDTRTRYLGTRPVKLFKVQCQGRSAILCTSSRSWLLYHFQRRFHLTPLSYANLEYAASFCSNQCSEGIVAISASTLRIIAAEKLGVAFNVQSFEHKMTPRRVAVHPSMPCLIVIETDHASYTEVTKNIKRNQMAADVEAMASDETEAQLAQEIATNLRERRLDERVYGAPRAARGKWASAISLISATSGDKLSYFELPQDENAKCVALVQFSKHPNEAMVLVGCGVNEVLNVHDIDPNDTSIRPTRGCVYTFHLSANGDRFDFLHRTETPLPVGAIHDFRGMALVGFGRFLRMYDIGQKKLLAKCENKNFPVSIVNIQSTGQRIIVSDSQESVHFLRYRKGDNQLVVFADDTTPRYVTCVCVLDYHTVAVADKFGNLAVVRLPERVNEDVQDDPTVSKSVWDRGWLNGASQKVELVSNFFIGDTITSLQKTSLMPGANEALVYTTIGGAIGCLVSFMSKDEVDFFTNLEMHVRSEYPPLCGRDHLAYRSYYAPCKSVIDGDICEQFSLMDTQKQKDVAEELGKTVSEISKKLEDIRTRYAF,not soluble
2,MGSDKIHHHHHHMASDIHTLSDSLLWKRFLEGDSSAYSQIYNQTVQELFRYGLLYTSDRELVKDCIHDVFVKIYTNRAKLTPTDNIIAYLMVALKNTLFNALKKTSDSFSLDEADEKEDQSEEHFSTPETIYINKEQEKNTHMKVHAMMSSLTTRQREIVYYRYIKDMSIDEISKITDMNYQSVSNSIQRALGRVRNLFKRE,not soluble
3,MSLAQAPHPERIYLSGTGIDNTKTWDFFCSAGQNSGKWKKIEVPCNWELQGFGEYTYGRWYTIKGQHPSDETGTYRYKFDAPKSWAGQRVKIFFDGVMTDAEIMINGKPAGEMHQGGFYRFNYDITELLNLGKKNQLEVKVAKESANRSINAAERKADWWLFGGIYRPVWLEVLPQIHMEHFVLNADHQGKLQAAVDMAGDAKGHEIIVSVRSLKDGKTVYTSNGQTTITHSISNSDKEQMISGEWASIIPWSTENPNLYVAKLELKNPEGKIVQTRETRIGFRTVEFFPQDGVYLNGTKLVVKGINRHSFSVDGGRTTSAALSRMDALLIKEMNMNAVRSHYPPDEHFLDMCDSLGLVYMDELAGWQNGYDSRVGAKLVKEMIERDVNHPCIILWSNGNEGGWNTQTDPLFAQYDRLQKRHMVHPWADFNDLDTHHYPTYLTGVARFTNGYKVFMPTEFMHAMYDQGGGAGLRDFWDRWCTNPLFAGGFIWVYCDEAPKRSDKGGILDSDKSNAPDGVVGPRREKEGSYYAIRAQWSPIQLKPLLITNHFDGRFLLTNEYTFTNLKDCRMTYKVLSCGTPLQGNAEAGKVIAEGKVQLPSINPGETGTARFELPDSFRKGDVLELEAFDREGKSICNWTYPIHLAKQYFERNLAQTTLTPAPQKAEARQTSDAIELKSSKVSITFDAATGMIRHIKSGETEVPFKDGPVAIGMKMRYEPSLSYTRHSSDGAIYCAKYKGAADSIVWRLTNEGLLYMDAILLNRGSGGGGFDDAFMDAQVFNLGLSFSYPEQNCSGMKWMGRGPYRVWKNRIPGTNYGIWHKDYNNTITGESFENLIYPEFKGYHANLYWATLEGEKTSFTVYSRNDGTFFRVFTPEEPAGRIKDTMPAFPEGDLSFLLDIPAICSFKPIEQQGPNSQPGNIRIKSGDEGLHLNLMFDFREGHHHHHH,soluble
4,MSDSSNQLMPLSLSAPGVNLGAYISTVNQIPILTAEQEKELAERYYYDQDLDAAKMLVMSHLRFVVHIARSYAGYGLPQGDLIQEGNLGLMKAVKRFDPNMGVRLVSFAVHWIKAEIHEYVIRNWRIVKIATTKAQRKLFFNLRSLKKSSKKLTLEEAQSIANDLNVTPEQVLEMEGRLTAYDAAFETQGDDDDDSSTHVAPALYLEDNRYDPARLAENDDYEEQSSTALHEAMNQLDDRSRNILQRRWLDDDKSTLHELAAEYNVSAERIRQLEKNAMEKIKVAMSAG,not soluble
5,SLSFSSKVKSEVCRYDDYSKGEAIAVLSAVMKASGTLALEGNRKISFKIITENPAIARLIFKLLKKYFDIHTEIMMKKSNSLKKNNVYVVSITEDMGVRELLKTVGVMKNEDGIVTLSYDIPEFVVKDDESRKMYIRGAFLGGGSVSNPEKMYHLEFVTHNEDYASNLRDLINTYGLNSKVIQRKNSYVVYIKEGEQVVDLLNIIGAHSSLLELENIRIIKEMRNNINRLVNCETANLSKTVNASVRQIESIKLIEKQIGLSRLPENLREVAKLRLNYPDESLKELGKMLEPPVGKSGVNHRLRKIEKIAEELRKEGR,soluble
6,MLKKLSPIFSNITGVVRYQDLAYVASVSDEIQEQNIAHSYVTEWDCGTWCVAGEDDDMLPWEIVSATVVHEPVEQALFLGARGQVFCMGSGDIHEEQLPDGDDAIGGRGNMRGVACIDGVAYACGMDRQVYRRFDENDWRAIDTGARPPAGSEAVVGFEAIGGFGAREIYAVGWDGEIWQYDGKRWQPRESPTNLILTAICCAEDGSVYACGQAGTLLRGRNDHWEIIAQDDVDEDLWSLAWFDGALYVSSATAVYTLVGGHLKEVDFGDEQPQRCFHLSAADGVLWSIAAKDIFSFDGQQWTRID,not soluble
7,MGSDKIHHHHHHMNKYIMLLMVSLLSACSSTPRKPIPDDPFYAPVYPDAPATQTAATGSIFLDSQASSLYSDIRAHKIGDIITVVLMESTQAKKSATNDIKKGSDMSMDPLFAGGGNVTIKGVPLDLKYKDAYNTKRESDADQSNSLAGSISANVMQVLSNGNLVIRGEKWISINNGDEFIRVTGIVRSQDIKPDNTIESVRVANARIQYSGTGTFADAQKVGWLGQFFLGEWWPF,not soluble
8,MVDIEPDRVYVFTPDGHAIDLPKNATPLDFAYRVHTEIGHNCRGAKINGRIVPLNYSLQTGEQVEIITSKHGTPSRDWLEHHHHHH,not soluble
9,MGSDKIHHHHHHMHLDLLICSKPFIFNKVVDTKPFYQRTIMYKHTVSQHVFTFDSLTELMAKASPLRSGDQLAGIAAGSYQERIAAQMALADLPLTTFLQEPLIPYESDEVTRLIFDTHEHTAFTAIAHLTVGDFRNFLLSNNTHTSQLTALQKAITPEMAAAVSKIMNVQDLILVSSKCEIITRFRNTIGVKGCMSTRLQPNHPTDDLKAIMASVLDGLFYGSGDAVIGINPATDHISTQVQLLKLIDAVREQYAIPTQSCILSHITNTILAIEQGAPVDLVFQSIGGTEKTNSSFGINLSLLQEGYEAALSLGRGTIGNNVMYFETGQGSSLSANAHYGIDQQTLEARAYAVARAFNPLLVNTVVGFIGPEYLFDGKQIIRAGLEDHFCGKLMGLPMGCDICYTNHADADQDDMDALLTLLGVAGCNFIMGVPGSDDIMLNYQSTSFHDALYIRKLLNVKPAPEFEEWLLKMGIMNTQHEITVHRIYCG,not soluble
10,MKLDQIDLNIIEELKKDSRLSMRELGRKIKLSPPSVTERVRQLESFGIIKQYTLEVDQKKLGLPVSCIVEATVKNADYERFKSYIQTLPNIEFCYRIAGAACYMLKINAESLEAVEDFINKTSPYAQTVTHVIFSEIDTKNGRG,soluble
